The record followed here is patent US20160009823A1 (Hoffmann-La Roche, published 2016).

For assay [1], the target named is mono-digoxygenated protein DIG-myoglobin. Put plainly: SPR (Biacore), DIG-Myoglobin as analyte. Background: In SPR one partner is held on a chip, and binding of the other changes the refractive index at the surface.
Assay [2] shares this target. In words: SPR (Biacore), DIG-Myoglobin as analyte, replicate.
Assay [3] concerns the target digoxygenated protein Dig-BP4. Put plainly: SPR (Biacore), antibody captured by anti-human IgG, DIG-BP4 as analyte.
The target of a further assay is T1, human VEGFR2-Fc.
T1 chain: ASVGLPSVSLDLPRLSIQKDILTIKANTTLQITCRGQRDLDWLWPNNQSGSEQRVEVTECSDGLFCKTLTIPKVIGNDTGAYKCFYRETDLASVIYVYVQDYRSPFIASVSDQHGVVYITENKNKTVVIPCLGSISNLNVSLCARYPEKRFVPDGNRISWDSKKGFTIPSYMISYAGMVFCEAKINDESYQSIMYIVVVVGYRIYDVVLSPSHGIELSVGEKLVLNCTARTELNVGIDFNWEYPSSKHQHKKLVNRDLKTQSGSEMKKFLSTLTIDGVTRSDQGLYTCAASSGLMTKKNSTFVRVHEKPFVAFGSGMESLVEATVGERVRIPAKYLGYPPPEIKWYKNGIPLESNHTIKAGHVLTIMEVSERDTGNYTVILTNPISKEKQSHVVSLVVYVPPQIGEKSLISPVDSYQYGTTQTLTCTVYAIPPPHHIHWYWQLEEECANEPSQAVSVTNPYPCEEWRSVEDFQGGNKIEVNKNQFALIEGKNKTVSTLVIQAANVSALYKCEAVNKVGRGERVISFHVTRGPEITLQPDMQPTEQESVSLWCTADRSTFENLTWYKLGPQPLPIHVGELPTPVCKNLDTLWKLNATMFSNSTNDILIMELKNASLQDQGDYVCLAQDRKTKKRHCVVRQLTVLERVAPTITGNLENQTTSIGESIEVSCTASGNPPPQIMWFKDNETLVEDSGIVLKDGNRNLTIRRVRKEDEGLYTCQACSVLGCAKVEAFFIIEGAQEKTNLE
In words: SPR, drawn table under the head 'Affinity for DIG-siRNA' with a Capture column.

In a further assay the target is T2, mouse VEGFR2-Fc.
T2 chain: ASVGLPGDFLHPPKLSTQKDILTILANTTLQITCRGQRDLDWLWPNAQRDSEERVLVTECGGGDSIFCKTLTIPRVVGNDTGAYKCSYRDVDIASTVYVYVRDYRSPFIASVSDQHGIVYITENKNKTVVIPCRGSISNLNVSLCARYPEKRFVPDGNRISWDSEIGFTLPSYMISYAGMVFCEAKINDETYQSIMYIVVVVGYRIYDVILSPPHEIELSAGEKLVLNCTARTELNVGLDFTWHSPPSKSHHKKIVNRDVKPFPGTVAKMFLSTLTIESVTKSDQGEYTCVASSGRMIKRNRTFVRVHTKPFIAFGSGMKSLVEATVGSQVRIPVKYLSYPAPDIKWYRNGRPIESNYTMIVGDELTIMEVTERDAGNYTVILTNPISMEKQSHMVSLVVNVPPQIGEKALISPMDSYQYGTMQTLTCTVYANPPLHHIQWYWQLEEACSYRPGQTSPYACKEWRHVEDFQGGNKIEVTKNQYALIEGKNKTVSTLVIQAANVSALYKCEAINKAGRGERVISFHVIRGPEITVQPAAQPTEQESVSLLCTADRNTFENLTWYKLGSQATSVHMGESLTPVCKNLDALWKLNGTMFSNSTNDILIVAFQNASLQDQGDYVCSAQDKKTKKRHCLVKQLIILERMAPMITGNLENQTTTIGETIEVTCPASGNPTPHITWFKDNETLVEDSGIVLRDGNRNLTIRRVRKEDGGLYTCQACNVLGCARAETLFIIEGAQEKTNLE
Described as above.

Assay [4] addresses T3, recombinantly produced soluble extracellular domain of the RTK Her2 (UniProt P04626 23-652).
T3 construct: extracellular domain; also called Her2-ECD; Her2ECD
In words: SPR (BiaCore), zoom; AKH-5 captured, Her2 and siRNA-DIG in both orders.

The target in the next assay is T4, human CD33-Fc fusion (human, UniProt P20138 18-259).
T4 construct: not shown: Fc part not described
T4 sequence (P20138 18-259): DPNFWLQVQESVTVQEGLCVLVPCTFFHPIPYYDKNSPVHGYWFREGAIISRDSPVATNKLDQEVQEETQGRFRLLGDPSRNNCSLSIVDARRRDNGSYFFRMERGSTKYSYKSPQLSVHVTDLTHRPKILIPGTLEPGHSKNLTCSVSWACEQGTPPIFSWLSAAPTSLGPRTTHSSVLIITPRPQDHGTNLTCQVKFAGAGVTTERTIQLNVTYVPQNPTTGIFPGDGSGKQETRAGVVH
In words: SPR, <CD33>-<DIG> on human CD33-Fc fusion as ligand, then DIG-siRNA.

In assay [5] the target is mono-digoxygenated protein DIG-myoglobin. In words: SPR (Biacore), DIG-Myoglobin as analyte. This is another data set of the same source.
Assay [6] concerns the target digoxygenated protein Dig-BP4. In words: SPR (Biacore); unit differs from Table 3 (33 pM).
The target of assay [7] is digoxygenated protein Dig-BP4. Put plainly: SPR (Biacore), antibody captured by anti-mouse IgG, DIG-BP4 as analyte.

Where only a bound is given, the exact number is not on record here.

Sequence of mono-digoxygenated protein DIG-myoglobin (P68082 2-154): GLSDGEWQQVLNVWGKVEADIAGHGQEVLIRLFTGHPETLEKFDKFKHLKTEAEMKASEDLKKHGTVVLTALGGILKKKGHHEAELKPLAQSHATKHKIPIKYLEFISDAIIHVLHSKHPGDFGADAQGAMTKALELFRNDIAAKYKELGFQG

B1: recombinant humanized <Dig> IgG antibody (antibody, V domains shown)
VH: QVQLVESGGGLVKPGGSLRLSCAASGFTFSDYAMSWIRQAPGKGLEWVSSINIGATYIYYADSVKGRFTISRDNAKNSLYLQMNSLRAEDTAVYYCARPGSPYEYDKAYYSMAYWGQGTTVTVSS
VL: DIQMTQSPSSLSASVGDRVTITCRASQDIKNYLNWYQQKPGKAPKLLIYYSSTLLSGVPSRFSGSGSGTDFTLTISSLQPEDFATYYCQQSITLPPTFGGGTKVEIKR
notes: also called hu<DIG> IgG; <DIG>hu2; not shown: hinge-CH2-CH3 of human IgG1
B1: the Kd (commonly the free concentration of one partner at which half of the binding sites on the other are occupied at equilibrium, for simple one-to-one binding) in assay [1] is 15.8 nM; in assay [2], 11.8 nM; in [3] it was less than 0.076 nM. The koff – broadly, a measure of how fast the partners let go of each other – in assay [1] stood at 0.00982 s⁻¹; in [2], 0.00881 s⁻¹. The kon (usually the rate constant with which the complex forms) amounted to 620000 M⁻¹ s⁻¹ in [1] and 749000 M⁻¹ s⁻¹ in [2].

B2: <VEGFR2(D1F7)-DIG>_001 (bispecific antibody, human IgG1, kappa)
heavy: not shown
light: QSVLTQPPSASGTPGQRVTISCSGSTSNIGTNTANWFQQLPGTAPKLLIHNNNQRPSGVPDRFSGSKSGTSASLAISGLQSEDEADYYCAAWDDSLNGHWVFGGGTKLTVLRTVAAPSVFIFPPSDEQLKSGTASVVCLLNNFYPREAKVQWKVDNALQSGNSQESVTEQDSKDSTYSLSSTLTLSKADYEKHKVYACEVTHQGLSSPVTKSFNRGEC
With B2, the binding result with human VEGFR2-Fc and with mouse VEGFR2-Fc was “binds” in each case.

B3: AKH-5 (bispecific antibody)
chain: QVQLLQSGAELKKPGESLKISCKGSGYSFTSYWIAWVRQMPGKGLEYMGLIYPGDSDTKYSPSFQGQVTISVDKSVSTAYLQWSSLKPSDSAVYFCARHDVGYCSSSNCAKWPEYFQHWGQGTLVTVSSGGGGSGGGGSGGGGSGGGGSQSVLTQPPSVSAAPGQKVTISCSGSSSNIGNNYVSWYQQLPGTAPKLLIYGHTNRPAGVPDRFSGSKSGTSASLAISGFRSEDEADYYCASWDYTLSGWVFGGGTKLTVLGGGGGSGGSLAALTAHQACHLPLETFTRHRQPRGWEQLEQCGYPVQRLVALYLAARLSWNQVDQVIRNALASPGSGGDLGEAIREQPEQARLALTLAAAESERFVRQGTGNDGGGGSGGGGSQVQLVESGGGLVKPGGSLRLSCAASGFTFSDYAMSWIRQAPGKCLEWVSSINIGATYIYYADSVKGRFTISRDNAKNSLYLQMNSLRAEDTAVYYCARPGSPYEYDKAYYSMAYWGQGTTVTVSSGGGGSGGGGSGGGGSGGGGSDIQMTQSPSSLSASVGDRVTITCRASQDIKNYLNWYQQKPGKAPKLLIYYSSTLLSGVPSRFSGSGSGTDFTLTISSLQPEDFATYYCQQSITLPPTFGCGTKVEIKHHHHHH
notes: also called <HER2> scFv-PExII-<DIG> scFv-His6; drawn as <Her2> - PExI - <DIG> - 6xHis
For B3, the binding result in [4] was “binds”.

B4: bispecific <CD33>-<DIG> antibody (bispecific antibody, human IgG1, kappa)
heavy: not shown
light: DIQLTQSPSTLSASVGDRVTITCRASESLDNYGIRFLTWFQQKPGKAPKLLMYAASNQGSGVPSRFSGSGSGTEFTLTISSLQPDDFATYYCQQTKEVPWSFGQGGTKVEVKEIKRTVAAPSVFIFPPSDEQLKSGTASVVCLLNNFYPREAKVQWKVDNALQSGNSQESVTEQDSKDSTYSLSSTLTLSKADYEKHKVYACEVTHQGLSSPVTKSFNRGEC
As for B4, the binding result with human CD33-Fc fusion is recorded as “binds”.

B5: hybridoma-derived murine <Dig> 19-11 antibody (antibody, V domains shown)
VH: EVQLVESGGGLVKPGGSLKLSCAVSGFTFSDYAMSWIRQTPENRLEWVASINIGATYAYYPDSVKGRFTISRDNAKNTLFLQMSSLGSEDTAMYYCARPGSPYEYDKAYYSMAYWGPGTSVTVSS
VL: DVQMTQSTSSLSASLGDRVTISCRASQDIKNYLNWYQQKPGGTVKLLIYYSSTLLSGVPSRFSGRGSGTDFSLTITNLEREDIATYFCQQSITLPPTFGGGTKLEIK
notes: also called murine DIG-IgG 19-11; <DIG>M-19-11
Consider B5, for which the “fold better affinity than <DIG>-hu2 and the disulfide-stabilized <DIG> scFv” value in assay [5] is roughly 100 fold. The Kd was found to be 0.386 nM in [1], 0.295 nM in [2], 33 nM in [6] and 0.033 nM in [7]. In addition, the koff worked out at 0.000676 s⁻¹ in assay [1] and 0.000675 s⁻¹ in [2]. Further, the kon is 1.75e+06 M⁻¹ s⁻¹ in [1] and 2.28e+06 M⁻¹ s⁻¹ in assay [2].
